From patent US20150359864A1, “PHARMACEUTICAL COMPOSITION CONTAINING PEPTIDES” (ONCOTHERAPY SCIENCE, INC., priority 2012, published 2015)

Experiments:
[1] = Preparation of single peptide injection preparations using injection solvent (Comparative Example 1); conditions: for Whether injection preparation could be prepared (in words): 2 mg to 20 mg peptide in 1 ml injection solvent; for Peptide concentration at which injection preparation could be prepared, Comparative Example 1 (injection solvent): injection solvent (water), room temperature, class symbol
Method: Pharmaceutical water defined by the Japanese Pharmacopoeia was used as an injection solvent.
In order to prepare formulations containing one of the peptides shown in Table 1, each of the peptides shown in Table 1 were added to 1 ml of an injection solvent. The resultants were agitated at room temperature so as to dissolve the entire amounts of the peptides added, and thereby colorless and clear solutions of each peptide were obtained. Thereafter, the peptide solutions were sterilized via filtration (with the use of a 0.22-μm filter) to obtain injection preparations.
The amounts of peptides added varied within the range of 2 mg to 20 mg, and injection preparations were prepared at each concentration. […] For these peptides, peptide concentrations that enable preparation of injection preparations were investigated.

[2] = Stability of lyophilized formulation, peptide content in the vial by HPLC (Example 7); assay type: physicochemical; conditions: 25 degrees C., humidity 60%, relative to comparative solution peak area = 100%
Method: 107.7 g of L-arginine and 110.4 g of sodium carbonate hydrate were dissolved in 5,500 ml of an injection solvent. Peptide 1, Peptide 2, Peptide 3, and Peptide 4 were dissolved therein in amounts of 6.2 g, 7.5 g, 8.7 g, and 8.0 g, respectively. Thereafter, the total amount of the solution was adjusted to 7,000 ml with the addition of an injection solvent, and a combination peptide solution was obtained. […] Following lyophilization, the vial was fully stoppered and the aluminum cap seaming was conducted. Thus, a lyophilized formulation was produced.
Further, the results shown above were subjected to regression analysis, so as to predict stability 24 months later.

[3] = Combination peptide injection preparation using sodium carbonate/arginine solution (Example 6); assay type: physicochemical; parameters: key to Dissolution on successive addition, Example 6 (Na2CO3/Arg) (2 mg each) / Dissolution of further 2 mg of Peptide 2, Example 6 (Na2CO3/Arg): ◯: Dissolved; X: White Turbid; conditions: for Dissolution on successive addition, Example 6 (Na2CO3/Arg) (2 mg each): 2 mg each peptide added one after another to 1 ml sodium carbonate/arginine solvent
Method: (§1) In order to prepare an injection preparation containing combination of the peptides shown in Table 1, the 10 types of peptides shown in Table 1 were added in an amount of 2 mg each to 1 ml of the injection solvent containing sodium carbonate and arginine as used in Example 3. The addition of each peptide was conducted in the same manner as in Example 4.

[4] = Preparation of injection preparations using sodium carbonate/arginine solution (Example 3); assay type: physicochemical; conditions: for Peptide concentration at which injection preparation could be prepared, Example 3 (Na2CO3/Arg): 41 mg sodium carbonate decahydrate and 40 mg L-arginine in 1 ml injection solvent; for pH of injection preparation, Example 3 (Na2CO3/Arg): injection solvent containing sodium carbonate and arginine
Method: 41 mg of sodium carbonate decahydrate and 40 mg of L-arginine were dissolved in 1 ml of an injection solvent to obtain an injection solvent containing sodium carbonate and arginine.
In the case of Peptide 3, it was confirmed that the injection preparation could be obtained with the addition of 15 mg of peptide at the maximum. All the obtained injection preparations had pH levels within adequate range for injection (Table 2).

[5] = Combination peptide injection preparation using arginine solution (Example 4); assay type: physicochemical; parameters: key to Dissolution on successive addition, Example 4-1 (Arg) (1 mg each) / Dissolution on successive addition, Example 4-2 (Arg) (2 mg each): ◯: Dissolved; X: White Turbid; conditions: for Dissolution on successive addition, Example 4-1 (Arg) (1 mg each): 1 mg each peptide added one after another to 1 ml arginine solvent; for Dissolution on successive addition, Example 4-2 (Arg) (2 mg each): 2 mg each peptide added one after another to 1 ml arginine solvent
Method: In order to prepare an injection preparation containing combination of the peptides shown in Table 1, the 10 types of peptides shown in Table 1 were added in an amount of 1 mg each to 1 ml of the injection solvent containing arginine as used in Example 2. The entire amount of one peptide was dissolved upon addition thereof to obtain a colorless and clear solution, and another peptide was then added thereto.
Subsequently, preparation of another injection preparation containing combination of the peptides was attempted in the same manner as described above, except that the amount of each peptide added was changed to 2 mg. […] Thus, no other peptides were added thereafter.

[6] = Preparation of single peptide injection preparations using arginine solution (Example 2); assay type: physicochemical; conditions: for Whether injection preparation could be prepared (in words): 5 mg to 20 mg peptide in 1 ml injection solvent containing arginine; for Peptide concentration at which injection preparation could be prepared, Example 2 (Arg): 40 mg L-arginine in 1 ml injection solvent; for pH of injection preparation, Example 2 (Arg): injection solvent containing arginine
Method: 40 mg of L-arginine was dissolved in 1 ml of an injection solvent to obtain an injection solvent containing arginine. In order to prepare formulations of each peptide that was not dissolved in an injection solvent in Comparative Example 1, Peptides 1, 2, 4, 7, and 10 were separately added to 1 ml of injection solvents containing arginine.
In the case of Peptide 1, it was confirmed that the injection preparation could be obtained with the addition of 6 mg of peptide at the maximum. All the obtained injection preparations had pH levels within adequate range for injection (Table 2).

[7] = Preparation of single peptide injection preparations using sodium carbonate solution (Example 1); assay type: physicochemical; conditions: for Whether injection preparation could be prepared (in words): 5 mg to 20 mg peptide in 1 ml injection solvent containing sodium carbonate; for Peptide concentration at which injection preparation could be prepared, Example 1 (Na2CO3): 41 mg sodium carbonate decahydrate in 1 ml injection solvent; for pH of injection preparation, Example 1 (Na2CO3): injection solvent containing sodium carbonate
Method: 41 mg of sodium carbonate decahydrate (Na2CO3.10H2O) was dissolved in 1 ml of an injection solvent to obtain an injection solvent containing sodium carbonate. In order to prepare formulations of the each peptide that was not dissolved in an injection solvent in Comparative Example 1, Peptides 1, 2, 4, 7, and 10 were separately added to 1 ml of injection solvents containing sodium carbonate.
In the case of Peptide 1, it was confirmed that the injection preparation could be obtained with the addition of 9 mg of peptide at the maximum. All the obtained injection preparations had pH levels within adequate range for injection (Table 2).

[8] = Combination peptide injection preparation using sodium carbonate solution (Example 5); assay type: physicochemical; parameters: key to Dissolution on successive addition, Example 5 (Na2CO3) (2 mg each) / Dissolution of further 2 mg of Peptide 2, Example 5 (Na2CO3): ◯: Dissolved; X: White Turbid; conditions: for Dissolution on successive addition, Example 5 (Na2CO3) (2 mg each): 2 mg each peptide added one after another to 1 ml sodium carbonate solvent
Method: as §1, with “carbonate” for “carbonate and arginine”, “1.” for “3.”

[9] = further 2 mg added after all 10 peptides (2 mg each) had dissolved

Row | Sequence | Whether injection preparation could be prepared (in words) [1] | Peptide concentration at which injection preparation could be prepared, Comparative Example 1 (injection solvent) [1] | Peptide content in the vial, 0 months [2] | Peptide content in the vial, 1 month [2] | Peptide content in the vial, 3 months [2] | Peptide content in the vial, 6 months [2] | Dissolution on successive addition, Example 6 (Na2CO3/Arg) (2 mg each) [3] | Peptide concentration at which injection preparation could be prepared, Example 3 (Na2CO3/Arg) ([4]; class symbol) | pH of injection preparation, Example 3 (Na2CO3/Arg) [4] | Dissolution on successive addition, Example 4-1 (Arg) (1 mg each) [5] | Dissolution on successive addition, Example 4-2 (Arg) (2 mg each) [5] | Whether injection preparation could be prepared (in words) [6] | Peptide concentration at which injection preparation could be prepared, Example 2 (Arg) ([6]; class symbol) | pH of injection preparation, Example 2 (Arg) [6] | Whether injection preparation could be prepared (in words) [7] | Peptide concentration at which injection preparation could be prepared, Example 1 (Na2CO3) ([7]; class symbol) | pH of injection preparation, Example 1 (Na2CO3) [7] | Dissolution on successive addition, Example 5 (Na2CO3) (2 mg each) [8] | further results
1 | EYYELFVNI (T cell epitope) [Peptide 2] | not possible to prepare the injection preparations regardless of the amounts of peptides added | X (0.08 mg/ml or less) | 101.8% | 99.5% | 101.3% | 101.4% | ◯ | ⊚ (20 mg/ml or more) | 9.67 | ◯ | ◯ | possible to prepare the injection preparations regardless of the amounts of peptides added | ⊚ (20 mg/ml or more) | 9.03 | possible to prepare the injection preparations regardless of the amounts of peptides added | ⊚ (20 mg/ml or more) | 8.90 | ◯ | Dissolution of further 2 mg of Peptide 2, Example 6 (Na2CO3/Arg) [3, 9]: ◯; Dissolution of further 2 mg (in words), Example 6 ([3]; further 2 mg after all 10 peptides (2 mg each), sodium carbonate/arginine solvent): colorless and clear solution was obtained; Dissolution of further 2 mg of Peptide 2, Example 5 (Na2CO3) [8, 9]: X; Dissolution of further 2 mg (in words), Example 5 ([8]; further 2 mg after all 10 peptides (2 mg each), sodium carbonate solvent): white turbidity
2 | SYGVLLWEI (T cell epitope) [Peptide 1] | not possible to prepare the injection preparations regardless of the amounts of peptides added | X (0.08 mg/ml or less) | 101.0% | 98.7% | 98.9% | 98.6% | ◯ |  | (10.41) | ◯ | ◯ |  |  | (10.17) |  |  | (9.85) | ◯ | Peptide concentration at which injection preparation could be prepared, Example 3 (Na2CO3/Arg) ([4]; numeric): 10 mg/mL; Peptide concentration at which injection preparation could be prepared, Example 2 (Arg) ([6]; numeric): 6 mg/mL; Maximum amount of peptide added that gave an injection preparation ([6]; in 1 ml injection solvent containing arginine): 6 mg; Peptide concentration at which injection preparation could be prepared, Example 1 (Na2CO3) ([7]; numeric): 9 mg/mL; Maximum amount of peptide added that gave an injection preparation ([7]; in 1 ml injection solvent containing sodium carbonate): 9 mg
3 | IYTWIEDHF (T cell epitope) [Peptide 4] | not possible to prepare the injection preparations regardless of the amounts of peptides added | X (0.08 mg/ml or less) | 101.2% | 99.6% | 99.4% | 99.5% | ◯ | ⊚ (20 mg/ml or more) | 9.69 | ◯ |  | possible to prepare the injection preparations regardless of the amounts of peptides added | ⊚ (20 mg/ml or more) | 8.95 | possible to prepare the injection preparations regardless of the amounts of peptides added | ⊚ (20 mg/ml or more) | 8.88 | ◯ | 
